Measurements: patent US20100273676A1 (GENERAL HOSPITAL, published 2010)
Ends that are not written are not given here. * marks the point of attachment. FITC = O=C1OC2(c3ccc(O)cc3Oc3cc(O)ccc32)c2ccc(NC(=S)*)cc21

B1: FITC-CgPdr1pAD-30 (FITC-LGTLDEFVNKGDLNELYNSLWGDLFSDVYL) (peptide)
peptide: {FITC}-LGTLDEFVNKGDLNELYNSLWGDLFSDVYL
notes: also called FITC-labled-CgPdr1pAD-30; Fluorescein-tagged CgPdr1pAD-30 peptide
B2: Fluorescein-conjugated 15-amino acid CgPdr1pAD peptide (FITC-LYNSLWGDLFSDVYL) (peptide)
peptide: {FITC}-LYNSLWGDLFSDVYL
notes: also called short Fluorescein-tagged CgPdr1pAD peptide

Experiments:
[1] = biological target: GST (glutathione S-transferase) (UniProt P08515 1-218 = GST); experiment: fluorescence polarization
[2] = biological target: T1, GST-tagged CgGal11Ap KIX domain (amino acids 1-86) (C. glabrata, UniProt P08515 1-218 = GST); experiment: fluorescence anisotropy/polarization, FITC peptide with increasing GST-CgGal11Ap KIX
[3] = biological target: T1, GST-tagged CgGal11Ap KIX domain (amino …); experiment: fluorescence polarization, salt and pH adjusted
[4] = biological target: T1, GST-tagged CgGal11Ap KIX domain (amino …); experiment: fluorescence polarization, FITC peptide with increasing GST-CgGal11Ap KIX

T1 sequence (P08515 whole entry, the tested form may be a part): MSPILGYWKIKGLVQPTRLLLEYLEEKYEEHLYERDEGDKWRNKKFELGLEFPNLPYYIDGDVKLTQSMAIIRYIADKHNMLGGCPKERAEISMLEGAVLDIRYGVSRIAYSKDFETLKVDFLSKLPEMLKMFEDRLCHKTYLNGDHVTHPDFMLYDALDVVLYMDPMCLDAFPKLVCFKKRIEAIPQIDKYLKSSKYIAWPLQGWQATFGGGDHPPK
Chain of GST (glutathione S-transferase) (P08515 whole entry, the tested form may be a part): as above

Row | Binder | binding result [1] | Kd [2] [µM] | Kd [3] [µM] | Kd [4] [µM]
1 | B1 | no binding | ~2 | ~0.7 | ~0.78
2 | B2 | – | ~210 | – | –
